This is an account of results in patent US20170065702A1 (CANGENE, published 2017).

Assay [1] has as its target T1, Marburg virus GP (Ravn) (Marburg virus, Ravn strain, UniProt Q1PDC7 19-681). The assay is described as follows: cell-based or functional assay.
The next assay concerns the target T2, MARV Ci67 GPe (Marburg virus, Ci67 strain, UniProt P35254 19-637).
T2 sequence: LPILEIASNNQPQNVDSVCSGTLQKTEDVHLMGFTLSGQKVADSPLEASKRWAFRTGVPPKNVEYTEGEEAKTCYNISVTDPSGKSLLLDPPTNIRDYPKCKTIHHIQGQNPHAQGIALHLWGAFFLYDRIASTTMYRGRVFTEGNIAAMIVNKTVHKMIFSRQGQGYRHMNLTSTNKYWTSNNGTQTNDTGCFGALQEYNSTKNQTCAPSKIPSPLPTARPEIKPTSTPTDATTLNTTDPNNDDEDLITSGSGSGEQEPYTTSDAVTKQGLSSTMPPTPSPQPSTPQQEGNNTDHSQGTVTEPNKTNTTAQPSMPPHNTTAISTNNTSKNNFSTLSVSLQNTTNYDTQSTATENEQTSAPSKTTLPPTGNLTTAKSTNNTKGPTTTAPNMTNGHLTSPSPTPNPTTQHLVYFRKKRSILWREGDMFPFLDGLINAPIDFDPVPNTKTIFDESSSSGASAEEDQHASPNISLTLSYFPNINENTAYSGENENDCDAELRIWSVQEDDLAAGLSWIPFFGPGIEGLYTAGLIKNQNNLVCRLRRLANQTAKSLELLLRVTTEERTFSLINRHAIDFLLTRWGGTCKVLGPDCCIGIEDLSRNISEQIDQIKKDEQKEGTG
The experiment in a line: ELISA on coated antigen (FIG. 2). (In general: ELISA stands for enzyme-linked immunosorbent assay.)

The next assay concerns the target T3, MARV Musoke GPe (Marburg virus, Musoke strain, UniProt P35253 19-637).
T3 sequence: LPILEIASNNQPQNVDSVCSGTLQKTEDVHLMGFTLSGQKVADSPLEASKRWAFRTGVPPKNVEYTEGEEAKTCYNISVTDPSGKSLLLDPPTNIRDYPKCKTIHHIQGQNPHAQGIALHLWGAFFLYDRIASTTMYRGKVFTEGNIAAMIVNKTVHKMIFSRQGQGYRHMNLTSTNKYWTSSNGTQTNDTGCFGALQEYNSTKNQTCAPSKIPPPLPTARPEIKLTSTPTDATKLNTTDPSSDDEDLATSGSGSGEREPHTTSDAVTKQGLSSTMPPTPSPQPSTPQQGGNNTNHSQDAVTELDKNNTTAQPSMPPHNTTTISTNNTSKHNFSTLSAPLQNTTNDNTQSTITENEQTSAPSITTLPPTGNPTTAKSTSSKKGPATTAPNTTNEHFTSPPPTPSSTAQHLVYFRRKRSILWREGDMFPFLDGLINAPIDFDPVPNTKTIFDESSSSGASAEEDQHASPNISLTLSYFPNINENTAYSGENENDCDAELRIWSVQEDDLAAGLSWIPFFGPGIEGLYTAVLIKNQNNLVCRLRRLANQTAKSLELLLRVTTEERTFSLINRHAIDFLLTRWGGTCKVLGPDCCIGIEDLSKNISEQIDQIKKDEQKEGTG
The experiment in a line: ELISA on coated antigen (FIG. 2).

The target in the next assay is T4, MARV Angola GPe (Marburg virus, Angola strain, UniProt Q1PD50 19-637).
T4 sequence: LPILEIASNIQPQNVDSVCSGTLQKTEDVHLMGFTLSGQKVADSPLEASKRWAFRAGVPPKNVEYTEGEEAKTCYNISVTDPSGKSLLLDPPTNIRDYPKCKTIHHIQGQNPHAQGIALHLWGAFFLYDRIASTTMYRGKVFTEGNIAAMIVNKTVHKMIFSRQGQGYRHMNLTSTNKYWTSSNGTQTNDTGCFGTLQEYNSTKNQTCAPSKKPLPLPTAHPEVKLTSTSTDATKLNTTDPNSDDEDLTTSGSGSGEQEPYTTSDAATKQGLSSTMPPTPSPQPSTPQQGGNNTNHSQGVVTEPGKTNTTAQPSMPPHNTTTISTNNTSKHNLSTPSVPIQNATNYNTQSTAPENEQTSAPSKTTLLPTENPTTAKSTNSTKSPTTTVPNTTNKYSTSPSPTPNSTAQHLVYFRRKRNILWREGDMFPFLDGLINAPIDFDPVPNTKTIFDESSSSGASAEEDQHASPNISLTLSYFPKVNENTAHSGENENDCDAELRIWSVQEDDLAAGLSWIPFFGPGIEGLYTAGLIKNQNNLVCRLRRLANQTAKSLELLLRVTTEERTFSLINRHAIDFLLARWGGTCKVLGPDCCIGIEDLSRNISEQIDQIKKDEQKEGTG
The experiment in a line: ELISA on coated antigen (FIG. 2).

Assay [2] addresses T1, Marburg virus GP (Ravn). The experiment in a line: cell-based or functional assay. This is another data set of the same source.

B1: CAN40G1 (antibody, V domains shown)
VH: EVQLQQSGPELVKPGASVKISCRTSGYTFTEYTIHWVKQSRGKSLEWIGGINPNHGGTLYNQKFKVKATLTVDKSSSTAYMELRSLTSEDSAVYYCARFTYDYWGQGTTLTVSS
VL: DIVLTQSPASLAVSLGQRASISCKASQSVDHDGDSYMNWYQQKPGQPPKLLIYATSNLESGIPARFSGSGSGTDFTLNIHPVEEEDAATYYCQQSYEVPLTFGAGTKLELK
B1: in the assay with Marburg virus GP (Ravn) [1], the “VSVdG/GP Neutralization” value worked out at 0%. For the same molecule, the binding result with MARV Ci67 GPe, with MARV Musoke GPe and with MARV Angola GPe was “binds” in each case.

B2: CAN30G1 (antibody, V domains shown)
VH: QIQLVQSGPELKKPGETVKISCKASGYTFTNYGMNWVKQAPGKGLKWMGWINTYTGKPTYVDDFKGRFAFSLETSANTAYLQINNLKNEDTATYFCESGGYDEDYWGQGTTLTVSS
VL: ENVLTQSPAIMSASPGEKVTMTCSASSSVTYMHWYQQKSSTSPKLWIYDTSKLASGVPGRFSGSGSGNSYSLTISSMEAEDVATYYCFQGSGYPYTFGGGTKLEIK
Take B2: in the assay with Marburg virus GP (Ravn) [1], the “VSVdG/GP Neutralization” value worked out at 5%. Moreover, the binding result with MARV Ci67 GPe, with MARV Musoke GPe and in the assay with MARV Angola GPe was “binds” each time.

B3: CAN30G5 (antibody, V domains shown)
VH: EVQLVESGGGLVQPKGSLKLSCAASGFAFNSYAMHWVCQAPGKGLEWVARIRIKSGNYATSYAGSVTDRFTVSRDDSQNLFYLQMNNLKTEDTAMYYCVREWEGAMDYWGQGTSVTVSS
VL: DIVLTQSPLSLPVSLGDQASISCRSSQSLVHSNGNTYLHWYLQKPGQSPNLLIYKVSNRFSGVPDRFSGSGSGTDFTLKISRVEAEDLGVYFCSQSTHVPWTFGGGTKLEIK
Turning to B3, in the assay with Marburg virus GP (Ravn) [1], the “VSVdG/GP Neutralization” value worked out at 50%. For the same molecule, the “neutralization of mucin containing (full length) MARV GP-pseudotyped VSV” value (shortened to “neutralization of mucin containing”) with Marburg virus GP (Ravn) [2] was ~50%. In addition, the binding result with MARV Ci67 GPe, in the assay with MARV Musoke GPe and with MARV Angola GPe was “no binding” throughout.

B4: CAN30G3 (antibody, V domains shown)
VH: QVQLKESGPGLVAPSQSLSITCTVSGFSLTDYGITWIRQPPGKGLEWLGVIWGGGSAYYNLVLKSRLSISKDNSKSQVFLKMNSLQTDDTAMYYCAKHRTLITTAMDYWGQGISVTVSS
VL: DVLMTQTPLSLPVSLGDQASISCRSSQNIVHSNGNTYLEWYLQKSGQSPKLLIYKVSNRFSGVPDRFSGSGSGTDFTLKISRVEAEDLGVYYCFQGSHFPWTFGGGTKLEIK
For B4, the “VSVdG/GP Neutralization” value with Marburg virus GP (Ravn) [1] was determined as 40%. For the same molecule, the “neutralization of mucin containing” value with Marburg virus GP (Ravn) [2] was ~50%. In addition, the binding result with MARV Ci67 GPe, with MARV Musoke GPe and in the assay with MARV Angola GPe was “no binding” in each case.

B5: CAN30G4 (antibody, V domains shown)
VH: EVKLVESGGGLVKSGGSLKLSCAVSGFTFSTYAMSWVRQIPEKRLEWVATISNGGSYIYYSDSVKGRFTISRDNAKNTLYLQMSSLRSEDTAMYYCARHRESYRYDWFAYWGQGTLVTVSA
VL: DVLMTQTPLSLPVSLGDQASISCRSSQNIVHSDGNTYLEWYLQKPGQSPKLLIYKFSNRFSGVPDRFSGSGSGTDFTLKISRVEAEDLGVYYCFQGSHVPPTFGAGTKLELK
For the molecule B5, the “VSVdG/GP Neutralization” value with Marburg virus GP (Ravn) [1] is 50%. Moreover, the binding result with MARV Ci67 GPe, in the assay with MARV Musoke GPe and with MARV Angola GPe was “binds” each time.

B6: CAN54G2 (antibody, V domains shown)
VH: QVQLQQSGTELVRPGTSVKISCKASGYDFTNFWLGWIKQRPGHGLEWIGDIYPGGDNTYYNEKFKGKVTLTADKSSNTAYMQFSSLTSEDSAVYFCFMILYTLDYWGQGTSVTVSS
VL: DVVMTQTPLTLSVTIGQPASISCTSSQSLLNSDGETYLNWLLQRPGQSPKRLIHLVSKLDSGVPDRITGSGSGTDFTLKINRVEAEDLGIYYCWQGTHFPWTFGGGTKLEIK
For B6, the “VSVdG/GP Neutralization” value with Marburg virus GP (Ravn) [1] turned out to be 40%. For the same molecule, in the assay with Marburg virus GP (Ravn) [2], the “neutralization of mucin containing” value is ~50%. The binding result with MARV Ci67 GPe, in the assay with MARV Musoke GPe and with MARV Angola GPe was “no binding” throughout.
